Experimental findings from patent US20240148828A1 are described below.

The test concerns the target NKG2D on human γδ T cells (human) (UniProt P26718). Briefly: cell-based or functional assay.

NKG2D on human γδ T cells (human), sequence (P26718 whole entry, stated change not applied): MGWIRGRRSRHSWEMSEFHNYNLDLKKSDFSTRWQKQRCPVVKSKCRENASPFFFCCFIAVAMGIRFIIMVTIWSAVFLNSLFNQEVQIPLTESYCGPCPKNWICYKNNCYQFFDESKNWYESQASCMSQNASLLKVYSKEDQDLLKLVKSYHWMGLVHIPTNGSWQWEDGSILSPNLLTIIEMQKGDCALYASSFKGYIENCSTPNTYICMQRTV

Substance “anti-NKG2D antibody (Clone #149810, R&D Systems)” gave a frequency of Vγ9+ T cells expressing CD107a (plate-bound, together with BTN2A1/3A1-Fc-CD19scFv) of 30 % γδ T cells.

“MICB-Fc fusion protein (from UniProt Q29980 23-298)” had a frequency of Vγ9+ T cells expressing CD107a (plate-bound, together with BTN2A1/3A1-Fc-CD19scFv) of 18 % γδ T cells.

“MICA-Fc fusion protein (from UniProt Q29983 24-307)”: the frequency of Vγ9+ T cells expressing CD107a (plate-bound, together with BTN2A1/3A1-Fc-CD19scFv) stood at 18 % γδ T cells.
